How the values were obtained:
[1] = molecular target: T1, recombinant biotinylated monomeric Fc fusion of murine Folate Receptor 1 (mu FolR1 ECD-AcTev-Fcknob-Avitag … (murine, UniProt P0DOX5 223-449 = IgG part, biotin on the C-terminal Avi tag)); test: SPR ProteOn, Fab analyte on immobilized antigen-Fc
T1 construct: also called muFolR1-Fc; murine FolR1
Protocol: Immobilization of antigens (ligand): Recombinant antigens were diluted with PBST (10 mM phosphate, 150 mM sodium chloride pH 7.4, 0.005% Tween 20) to 10 μg/ml, then injected at 30 μl/minute in vertical orientation. Injection of analytes: For ‘one-shot kinetics’ measurements, injection direction was changed to horizontal orientation, two-fold dilution series of purified Fab (varying concentration ranges) were injected simultaneously along separate channels 1-5, with association times of 150 or 200 s, and dissociation times of 200 or 600 s, respectively. Buffer (PBST) was injected along the sixth channel to provide an “in-line” blank for referencing. Association rate constants (kₒₙ) and dissociation rate constants (koff) were calculated using a simple one-to-one Langmuir binding model in ProteOn Manager v3.1 software by simultaneously fitting the association and dissociation sensorgrams. The equilibrium dissociation constant (KD) was calculated as the ratio koff/kₒₙ.

[2] = molecular target: T2, recombinant biotinylated monomeric Fc fusion of human Folate Receptor 1 (huFolR1 ECD-AcTev-Fcknob-Avi tag … (human, UniProt P0DOX5 223-449 = IgG part, biotin on the C-terminal Avi tag)); test: SPR ProteOn, Fab analyte on immobilized antigen-Fc
T2 construct: also called huFolR1-Fc; human FolR1-Fc
Protocol: (§1) Immobilization of antigens (ligand): Recombinant antigens were diluted with PBST (10 mM phosphate, 150 mM sodium chloride pH 7.4, 0.005% Tween 20) to 10 μg/ml, then injected at 30 μl/minute in vertical orientation. Injection of analytes: For ‘one-shot kinetics’ measurements, injection direction was changed to horizontal orientation, two-fold dilution series of purified Fab (varying concentration ranges) were injected simultaneously along separate channels 1-5, with association times of 200 s, and dissociation times of 600 s. Buffer (PBST) was injected along the sixth channel to provide an “in-line” blank for referencing. Association rate constants (kₒₙ) and dissociation rate constants (koff) were calculated using a simple one-to-one Langmuir binding model in ProteOn Manager v3.1 software by simultaneously fitting the association and dissociation sensorgrams. The equilibrium dissociation constant (KD) was calculated as the ratio koff/kₒₙ.

[3] = molecular target: T3, recombinant biotinylated monomeric Fc fusion of cynomolgus Folate Receptor 1 (cy FolR1 ECD-AcTev-Fcknob-Avi … (cynomolgus, UniProt P0DOX5 223-449 = IgG part, biotin on the C-terminal Avi tag)); test: SPR ProteOn, Fab analyte on immobilized antigen-Fc
T3 construct: also called cyFolR1-Fc; cyno FolR1
Protocol: as §1

[4] = molecular target: T1, recombinant biotinylated monomeric Fc …; test: SPR ProteOn, Fab analyte on immobilized antigen-Fc; remark: listed apart in the source
Protocol: as §1

[5] = molecular target: T4, recombinant biotinylated monomeric Fc fusion of human Folate Receptor 2 (hu FolR2 ECD-AcTev-Fcknob-Avi tag … (human, UniProt P0DOX5 223-449 = IgG part, biotin on the C-terminal Avi tag)); test: SPR ProteOn, Fab analyte on immobilized antigen-Fc
T4 construct: also called FolR2-Fc
Protocol: as §1

[6] = molecular target: T5, recombinant biotinylated monomeric Fc fusion of human Folate Receptor 3 (hu FolR3 ECD-AcTev-Fcknob-Avi tag … (human, UniProt P0DOX5 223-449 = IgG part, biotin on the C-terminal Avi tag)); test: SPR ProteOn, Fab analyte on immobilized antigen-Fc
T5 construct: also called FolR3-Fc
Protocol: as §1

[7] = molecular target: T6, human FolR2 on transfected HEK cells (human, UniProt P14207 17-230); test: flow cytometry on transfected HEK cells
T6 construct: whole, on cells
T6 sequence (P14207 17-230): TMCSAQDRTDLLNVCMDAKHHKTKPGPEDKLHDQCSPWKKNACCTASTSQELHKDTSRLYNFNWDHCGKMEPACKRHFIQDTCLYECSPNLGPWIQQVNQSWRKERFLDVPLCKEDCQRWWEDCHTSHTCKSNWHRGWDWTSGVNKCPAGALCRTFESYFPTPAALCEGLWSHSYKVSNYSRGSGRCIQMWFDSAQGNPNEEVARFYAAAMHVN

[8] = molecular target: T1, recombinant biotinylated monomeric Fc …; test: SPR Biacore, single injection on immobilized antigen-Fc
Protocol: (§2) Binding of FolR1 binders as IgG or in the T-cell bispecific format to different recombinant folate receptors (human FolR1, 2 and 3, murine FolR1 and cynomolgus FolR1; all as Fc fusions) was assessed by surface plasmon resonance (SPR). All SPR experiments were performed on a Biacore T200 at 25° C. with HBS-EP as running buffer (0.01 M HEPES pH 7.4, 0.15 M NaCl, 3 mM EDTA, 0.005% Surfactant P20, Biacore, Freiburg/Germany).
(§3) First the anti-FolR1 IgGs were analyzed by single injections (Table 1) to characterize their crossreactivity (to human, murine and cyno FolR1) and specificity (to human FolR1, human FolR2, human FolR3). Recombinant biotinylated monomeric Fc fusions of human, cynomolgus and murine Folate Receptor 1 (FolR1-Fc) or human Folate Receptor 2 and 3 (FolR2-Fc, FolR3-Fc) were directly coupled on a SA chip using the standard coupling instruction (Biacore, Freiburg/Germany). The immobilization level was about 300-400 RU. The IgGs were injected for 60 seconds at a concentration of 500 nM.

[9] = molecular target: T4, recombinant biotinylated monomeric Fc …; test: as above
Protocol: as §2, §3

[10] = molecular target: T3, recombinant biotinylated monomeric Fc …; test: SPR Biacore, affinity (monovalent), antibody captured via anti-Fab
Protocol: as §2
For affinity measurement, direct coupling of around 6000-7000 resonance units (RU) of the anti-human Fab specific antibody (Fab capture kit, GE Healthcare) was performed on a CM5 chip at pH 5.0 using the standard amine coupling kit (GE Healthcare). Anti-FolR1 IgGs or T cell bispecifics were captured at 20 nM with a flow rate of 10 μl/min for 20 or 40 sec, the reference flow cell was left without capture. Dilution series (6.17 to 500 nM or 12.35 to 3000 nM) of human or cyno Folate Receptor 1 Fc fusion were passed on all flow cells at 30 μl/min for 120 or 240 sec to record the association phase. The dissociation phase was monitored for 240 s and triggered by switching from the sample solution to HBS-EP. The chip surface was regenerated after every cycle using a double injection of 60 sec 10 mM Glycine-HCl pH 2.1 or pH 1.5. Bulk refractive index differences were corrected for by subtracting the response obtained on the reference flow cell 1. The affinity constants for the interactions were derived from the rate constants by fitting to a 1:1 Langmuir binding using the Bia Evaluation software (GE Healthcare).

[11] = molecular target: T3, recombinant biotinylated monomeric Fc …; test: SPR Biacore, avidity (bivalent, apparent KD), antigen-Fc on SA chip
Protocol: as §2
Recombinant biotinylated monomeric Fc fusions of human, cynomolgus and murine Folate Receptor 1 (FolR1-Fc) were directly coupled on a SA chip using the standard coupling instruction (Biacore, Freiburg/Germany). The immobilization level was about 300-400 RU. The anti-FolR1 IgGs or T cell bispecifics were passed at a concentration range from 2.1 to 500 nM with a flow of 30 μL/minutes through the flow cells over 180 seconds. The dissociation was monitored for 600 seconds. Bulk refractive index differences were corrected for by subtracting the response obtained on reference flow cell immobilized with recombinant biotinylated IL2 receptor Fc fusion. […] The binding curves resulting from the bivalent binding of the IgGs or T cell bispecifics were approximated to a 1:1 Langmuir binding and fitted with that model (which is not correct, but gives an idea of the avidity). The apparent avidity constants for the interactions were derived from the rate constants of the fitting using the Bia Evaluation software (GE Healthcare).

| Binder | binding result [4] | binding result [5] | binding result [6] | further results |
| --- | --- | --- | --- | --- |
| 5D9 Fab (Fab, V domains shown, bacterial Fab) VH: QVQLVQSGAEVKKPGASVKVSCKASGYTFTSYYMHWVRQAPGQGLEWMGIINPSGGSTSYAQKFQGRVTMTRDTSTSTVYMELSSLRSEDTAVYYCARSYIDMDYWGQGTLVTVSS VL: EIVLTQSPGTLSLSPGERATLSCRASQSVSSSYLAWYQQKPGQAPRLLIYGASSRATGIPDRFSGSGSGTDFTLTISRLEPEDFAVYYCQQDNWSPTFGQGTKVEIK |  |  |  | binding result [1]: no binding |
| 6B6 Fab (Fab, V domains shown, bacterial Fab) VH: QVQLVQSGAEVKKPGASVKVSCKASGYTFTSYYMHWVRQAPGQGLEWMGIINPSGGSTSYAQKFQGRVTMTRDTSTSTVYMELSSLRSEDTAVYYCARSYVDMDYWGQGTLVTVSS VL: EIVLTQSPGTLSLSPGERATLSCRASQSVSSSYLAWYQQKPGQAPRLLIYGASSRATGIPDRFSGSGSGTDFTLTISRLEPEDFAVYYCQQDIWSPTFGQGTKVEIK |  |  |  | binding result [1]: no binding |
| 11F8 Fab (Fab, V domains shown, bacterial Fab) VH: QVQLVQSGAEVKKPGSSVKVSCKASGGTFSSYAISWVRQAPGQGLEWMGGIIPIFGTANYAQKFQGRVTITADKSTSTAYMELSSLRSEDTAVYYCARAVFYRAWYSFDYWGQGTTVTVSS VL: DIQMTQSPSTLSASVGDRVTITCRASQSISSWLAWYQQKPGKAPKLLIYDASSLESGVPSRFSGSGSGTEFTLTISSLQPDDFATYYCQQYTSPPPTFGQGTKVEIK |  |  |  | Kd [1]: 1200 nM |
| 15B6 Fab (Fab, V domains shown, bacterial Fab) VH: QVQLVQSGAEVKKPGASVKVSCKASGYTFTSYYMHWVRQAPGQGLEWMGIINPSGGSTSYAQKFQGRVTMTRDTSTSTVYMELSSLRSEDTAVYYCARNYYIGIVPFDYWGQGTLVTVSS VL: QAVVTQEPSLTVSPGGTVTLTCGSSTGAVTTSNYANWVQEKPGQAFRGLIGGTNKRAPGTPARFSGSLLGGKAALTLSGAQPEDEAEYYCALWYSNLWVFGGGTKLTVL | no binding | no binding | no binding | Kd [2]: 19.1 nM; Kd [3]: 13.9 nM |
| 16D5 Fab (Fab, V domains shown, bacterial Fab) VH: not shown VL: QAVVTQEPSLTVSPGGTVTLTCGSSTGAVTTSNYANWVQEKPGQAFRGLIGGTNKRAPGTPARFSGSLLGGKAALTLSGAQPEDEAEYYCALWYSNLWVFGGGTKLTVL | no binding | no binding | no binding |  |
| 21A5 Fab (Fab, V domains shown, bacterial Fab) VH: not shown VL: QAVVTQEPSLTVSPGGTVTLTCGSSTGAVTTSNYANWVQEKPGQAFRGLIGGTNKRAPGTPARFSGSLLGGKAALTLSGAQPEDEAEYYCALWYSNLWVFGGGTKLTVL | no binding | no binding |  |  |
| 21G8 Fab (Fab, V domains shown, bacterial Fab) VH: not shown VL: QAVVTQEPSLTVSPGGTVTLTCGSSTGAVTTSNYANWVQEKPGQAFRGLIGGTNKRAPGTPARFSGSLLGGKAALTLSGAQPEDEAEYYCALWYSNLWVFGGGTKLTVL | no binding |  |  |  |
| 21A5 IgG (antibody, V domains shown, human IgG1) VH: not shown VL: QAVVTQEPSLTVSPGGTVTLTCGSSTGAVTTSNYANWVQEKPGQAFRGLIGGTNKRAPGTPARFSGSLLGGKAALTLSGAQPEDEAEYYCALWYSNLWVFGGGTKLTVL |  |  |  | binding result [7]: no binding; binding result [8]: no binding (tested: 500 nM); binding result [9]: no binding (tested: 500 nM) |
| 16F12 Fab (Fab, V domains shown, bacterial Fab) VH: QVQLVQSGAEVKKPGASVKVSCKASGYTFTSYYMHWVRQAPGQGLEWMGIINPSGGSTSYAQKFQGRVTMTRDTSTSTVYMELSSLRSEDTAVYYCARNFTVLRVPFDYWGQGTLVTVSS VL: QAVVTQEPSLTVSPGGTVTLTCGSSTGAVTTSNYANWVQEKPGQAFRGLIGGTNKRAPGTPARFSGSLLGGKAALTLSGAQPEDEAEYYCALWYSNLWVFGGGTKLTVL | no binding | no binding | no binding | Kd [2]: 68 nM; Kd [3]: 90.9 nM |
| Farletuzumab (antibody, V domains shown) VH: EVQLVESGGGVVQPGRSLRLSCSASGFTFSGYGLSWVRQAPGKGLEWVAMISSGGSYTYYADSVKGRFAISRDNAKNTLFLQMDSLRPEDTGVYFCARHGDDPAWFAYWGQGTPVTVSS VL: DIQLTQSPSSLSASVGDRVTITCSVSSSISSNNLHWYQQKPGKAPKPWIYGTSNLASGVPSRFSGSGSGTDYTFTISSLQPEDIATYYCQQWSSYPYMYTFGQGTKVEIKR |  |  |  | Kd [10]: 67.3 nM; Kd [11]: 0.65 nM |

Reference: US20220220224A1 (Hoffmann-La Roche, published 2022)
